Kd and stoichiometry N data for one substance are collected here from paper doi:10.1101/2020.09.01.277863.

The experiment deals with HalM2, class II lanthipeptide synthetase (wild type) (Bacillus halodurans). Briefly: native MS.

Consider HalA2 precursor peptide (full-length), for which the Kd – broadly, the concentration at which binding is half-saturated – is 2.4 µM and the stoichiometry N (usually the number of molecules, sites or subunits per partner or assembly) is 1.
